Laboratory results from patent US20190284292A1 (IMMUNOAH THERAPEUTICS, published 2019).

Tests used:
human 4-1BB [1] = target: T1, human 4-1BB (human, UniProt Q07011 24-255); assay: binding to 293T cells expressing human 4-1BB
T1 construct: whole, on cells; Also used here for the native receptor on human T cells in the co-stimulation assay; also called CD137; h4-1BB

human 4-1BB [2] = target: T1, human 4-1BB; assay: flow cytometry, staining of 293T cells transfected with human 4-1BB, compared with untransfected 293T cells

T1 sequence (Q07011 24-255): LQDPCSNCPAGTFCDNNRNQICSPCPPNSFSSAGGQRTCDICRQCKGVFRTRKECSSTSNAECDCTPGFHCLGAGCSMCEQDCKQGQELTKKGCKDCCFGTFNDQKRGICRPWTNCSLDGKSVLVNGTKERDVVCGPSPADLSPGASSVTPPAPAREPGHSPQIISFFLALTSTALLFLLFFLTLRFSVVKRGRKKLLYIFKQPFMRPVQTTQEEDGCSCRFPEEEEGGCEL

binding result (human 4-1BB [1])	binding result (human 4-1BB [2])	Binder
binds		ZW106 (antibody, V domains shown, Mouse monoclonal antibody against human 4-1BB; also called clone ZW106; 4-1BB mAb) VH: QVQLQQPESELVRPGGSVKLSCKASGYTFTSYWMDWVKQRHGQGLEWIGNIYPDSGGTNYAEKFKSKATLTVDTSSSTAYMHLSSLTSEDSAVYYCTREEALGGYYELTYWGQGTLVTVSA VL: DIVLTQSPASLPVSLGQRATISCRASQSVSTSSYSYMHWYQQKPGQPPKLLIKYASNLESGVPARFSGSGSGTDFTLNIHPVEEEDTATYYCQHSWEIPYTFGGGTKLEIE
	binds	ZW103 (antibody, V domains shown, Mouse monoclonal antibody against human 4-1BB from a hybridoma; also called clone ZW103; 4-1BB mAb) VH: QVQLQQSGAELVRPGVSVKISCKGSGYTFTDYAMHWVKQSHVKSLEWIGGISTYNGDASYNQKFKGKATMTVDKSSRTAYMELVRLTSEDSAIYYCAPSNYGYAMDYWGQGTSVTVSS VL: not shown
	binds	ZW104 (antibody, V domains shown, Mouse monoclonal antibody against human 4-1BB from a hybridoma; also called clone ZW104; 4-1BB mAb) VH: QVQLQQSGAELARPGASVKMSCKASGYIFTTYAMHWVKQRPGQGLEWIGYINPTTVYTIYNQKFKDKATLTADKSSSTAYMQLSSLTSEDSAVYYCARLGGHWYFDVWGAGTTVTVSS VL: not shown
binds		ZW107 (antibody, V domains shown, Mouse monoclonal antibody against human 4-1BB; also called clone ZW107; 4-1BB mAb) VH: QVQLQQSGAELVRPGTSVKISCKASGYAFTNYWLGWVKQRPGHGLEWIGDIYPGNGNNYYSEKFKDKATLTADKSSSTVYIRLSSLTSEDSAVYFCARHGSFRSAMDYWGQGTSVTVSS VL: DIQMTQSPASPSASVGETVTITCRASENIYSYLAWYQQKQGKSPQLLVYNAKTLADGVPSRFSGSGSGTQFSLKINSLQPEDFGSYYCQHHYGTPPTFGGGTKLEIK
